The record followed here is doi:10.1101/2025.08.06.668938 (bioRxiv, 2025).

For one experiment, the target named is T1, TNF-α (Homo sapiens, UniProt P01375, biotinylated (said of the BLI experiment)).
T1 construct: TNF-α, a pro-inflammatory cytokine, target of adalimumab; also called Purified TNF-α; biotinylated TNF-α; source: bought: Acro Biosciences (Cat #TNA-H82E3, Lot #BV2043-241DF11R8)
In words: ELISA; screening ELISA; antigen coated at 1 µg/mL (30 ng/well) in bicarbonate coating buffer on 384-well MaxiSorp overnight at 4°C; blocked with 4% milk in PBS; antibody at 1 µg/mL in PBS, 2 h at room temperature; goat anti-human IgG Fc-HRP, TMB, absorbance at 450 nm. The settings on record: both partners purified. Background: An ELISA detects its analyte on a solid surface through an enzyme-linked reagent.

For a further experiment, the target named is T2, Human PD-1 (human, UniProt Q15116).
T2 construct: programmed death receptor 1 (PD-1), human, target of pembrolizumab; The printed catalogue number is that of the TNF-α product, probably a slip; also called programmed death receptor 1; Target (pembrolizumab panels); source: bought: Acro Biosciences (printed Cat #TNA-H82E3, Lot #BV2043-241DF1-1R8)
T2 sequence (Q15116 25-170): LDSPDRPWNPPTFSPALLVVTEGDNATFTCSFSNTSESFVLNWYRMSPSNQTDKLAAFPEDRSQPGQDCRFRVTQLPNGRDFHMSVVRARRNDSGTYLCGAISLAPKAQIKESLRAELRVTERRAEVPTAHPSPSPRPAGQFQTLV
Described as above. The settings on record: both partners purified.

T1 sequence (P01375 77-233): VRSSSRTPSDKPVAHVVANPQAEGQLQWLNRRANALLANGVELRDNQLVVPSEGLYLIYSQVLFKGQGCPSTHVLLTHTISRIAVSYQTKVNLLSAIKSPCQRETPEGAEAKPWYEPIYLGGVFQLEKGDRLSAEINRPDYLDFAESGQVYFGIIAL

B1: adalimumab VH paired with germline IGKV7-3*01/IGKJ1*01 with the adalimumab light CDRs grafted (antibody, V domains shown)
VH: not shown
VL: DIVLTQSPASLAVSPGQRATITCRASQGIRNYLAWYQQKPGQPPKLLIYAASTLQSGVPARFSGSGSGTDFTLTINPVEANDTANYYCQRYNRAPYTFGQGTKVEIK
notes: as the VH of m3 (native VH of adalimumab); germline V-gene IGKV7-3*01 combined with J-gene IGKJ1*01, all three light CDRs of adalimumab (Kabat definition) grafted; Whole antibody; also called Germline-3+ (adalimumab)
As for B1, the binding result in the experiment with TNF-α is “binds”.

B2: adalimumab VH paired with LICHEN-5 light sequence (pairing_CDRs) (antibody, V domains shown)
VH: not shown
VL: EIVLTQSPATLSLSPGERATLSCRASQGIRNYLAWYQQKPGQAPRLLIYAASTLQSGIPARFSGSGSGTDFTLTISSLEPEDFAVYYCQRYNRAPYTFGQGTKLEIK
notes: as the VH of m3 (native VH of adalimumab); Whole antibody; also called LICHEN-5 (adalimumab)
Consider B2, for which the binding result with TNF-α is listed as “binds”.

B3: pembrolizumab (antibody, V domains shown)
VH: QVQLVQSGVEVKKPGASVKVSCKASGYTFTNYYMYWVRQAPGQGLEWMGGINPSNGGTNFNEKFKNRVTLTTDSSTTTAYMELKSLQFDDTAVYYCARRDYRFDMGFDYWGQGTTVTVSS
VL: EIVLTQSPATLSLSPGERATLSCRASKGVSTSGYSYLHWYQQKPGQAPRLLIYLASYLESGVPARFSGSGSGTDFTLTISSLEPEDFAVYYCQHSRDLPLTFGGGTKVEIK
notes: native VH of the therapeutic pembrolizumab (humanised, IGHV1); Whole antibody (detected by anti-human IgG Fc); also called therapeutic; positive control (pembrolizumab panels)
For the molecule B3, the binding result with Human PD-1 is “binds”.

B4: pembrolizumab VH paired with germline IGKV7-3*01/IGKJ1*01 with the pembrolizumab light CDRs grafted (antibody, V domains shown)
VH: QVQLVQSGVEVKKPGASVKVSCKASGYTFTNYYMYWVRQAPGQGLEWMGGINPSNGGTNFNEKFKNRVTLTTDSSTTTAYMELKSLQFDDTAVYYCARRDYRFDMGFDYWGQGTTVTVSS
VL: DIVLTQSPASLAVSPGQRATITCRASKGVSTSGYSYLHWYQQKPGQPPKLLIYLASYLESGVPARFSGSGSGTDFTLTINPVEANDTANYYCQHSRDLPLTFGQGTKVEIK
notes: as the VH of m13 (native VH of pembrolizumab); germline V-gene IGKV7-3*01 combined with J-gene IGKJ1*01, all three light CDRs of pembrolizumab (Kabat definition) grafted; Whole antibody; also called Germline-3+ (pembrolizumab)
With B4, in the experiment with Human PD-1, the binding result is on record as “binds”.

B5: pembrolizumab VH paired with germline IGKV3-20*01/IGKJ1*01 with the pembrolizumab light CDRs grafted (antibody, V domains shown)
VH: QVQLVQSGVEVKKPGASVKVSCKASGYTFTNYYMYWVRQAPGQGLEWMGGINPSNGGTNFNEKFKNRVTLTTDSSTTTAYMELKSLQFDDTAVYYCARRDYRFDMGFDYWGQGTTVTVSS
VL: EIVLTQSPGTLSLSPGERATLSCRASKGVSTSGYSYLHWYQQKPGQAPRLLIYLASYLESGIPDRFSGSGSGTDFTLTISRLEPEDFAVYYCQHSRDLPLTFGQGTKVEIK
notes: as the VH of m13 (native VH of pembrolizumab); germline V-gene IGKV3-20*01 combined with J-gene IGKJ1*01, all three light CDRs of pembrolizumab (Kabat definition) grafted; Whole antibody; also called Germline-1+ (pembrolizumab)
For B5, the binding result with Human PD-1 was “binds”.

B6: pembrolizumab VH paired with germline IGKV3-11*01/IGKJ1*01 with the pembrolizumab light CDRs grafted (antibody, V domains shown)
VH: QVQLVQSGVEVKKPGASVKVSCKASGYTFTNYYMYWVRQAPGQGLEWMGGINPSNGGTNFNEKFKNRVTLTTDSSTTTAYMELKSLQFDDTAVYYCARRDYRFDMGFDYWGQGTTVTVSS
VL: EIVLTQSPATLSLSPGERATLSCRASKGVSTSGYSYLHWYQQKPGQAPRLLIYLASYLESGIPARFSGSGSGTDFTLTISSLEPEDFAVYYCQHSRDLPLTFGQGTKVEIK
notes: as the VH of m13 (native VH of pembrolizumab); germline V-gene IGKV3-11*01 combined with J-gene IGKJ1*01, all three light CDRs of pembrolizumab (Kabat definition) grafted; Whole antibody; also called Germline-2+ (pembrolizumab)
On to B6, for which the binding result with Human PD-1 was “binds”.

B7: adalimumab VH paired with LICHEN-2 light sequence (pairing_CDRs) (antibody, V domains shown)
VH: not shown
VL: DIQMTQSPSFVSASVGDRVTITCRASQGIRNYLAWYQQKPGKAPEVLISAASTLQSGVPSRFSGSGSGTEFTLTITNLQPEDSATYFCQRYNRAPYTFGQGTRLDIK
notes: as the VH of m3 (native VH of adalimumab); Whole antibody; also called LICHEN-2 (adalimumab)
B7: the binding result in the experiment with TNF-α is “binds”.

B8: adalimumab VH paired with LICHEN-3 light sequence (pairing_CDRs) (antibody, V domains shown)
VH: not shown
VL: DIVMTQTPPSSPVTLGQPASISCRASQGIRNYLAWYQQKPGQSPKLLISAASTLQSGVPSRFSGSGSGTDFTLKISSLQPEDVATYYCQRYNRAPYTFGQGTKLEIK
notes: as the VH of m3 (native VH of adalimumab); Whole antibody; also called LICHEN-3 (adalimumab)
As to B8, the binding result with TNF-α is listed as “binds”.
